According to article PMC6039025:

What was measured:
Assay in all cases: fluorescence anisotropy
Settings in all cases: Hill slope fit; 10 nM 6-FAM ssDNA, 0.001-6 uM protein, 20 min at 30 C, read at room temperature; binding buffer not stated (protein storage FP buffer: 200 mM NaCl, 50 mM …)
[1] = system: condensin holocomplex, Smc4-A1376S-Q1377A (Saccharomyces cerevisiae (overexpressed in strain D1074))
[2] = system: condensin holocomplex, Smc4-K191M (Saccharomyces cerevisiae (overexpressed in strain D1074))
[3] = system: condensin holocomplex, Smc4-L1333I-L1335A (Saccharomyces cerevisiae (overexpressed in strain D1074))
[4] = system: condensin holocomplex, Smc4-L1333V-L1335A (Saccharomyces cerevisiae (overexpressed in strain D1074))
[5] = system: condensin holocomplex, Smc4-L1335A (Saccharomyces cerevisiae (overexpressed in strain D1074))
[6] = system: condensin holocomplex, Smc4-Q1377A (Saccharomyces cerevisiae (overexpressed in strain D1074))
[7] = system: condensin holocomplex, wild-type Smc4 (Saccharomyces cerevisiae (overexpressed in strain D1074))

With 6-FAM 60-nt ssDNA the Kd [1] was 171 nM, the Kd [2] was 76.7 nM and the Kd [3] was 92.8 nM. The Kd [4] was 148 nM, the Kd [5] was 193 nM and the Kd [6] was 216 nM. It also gave a Kd [7] of 252 nM.
